We go through two molecules from patent US20230051715A1 (MABWELL THERAPEUTICS, published 2023).

The target of test [1] is T1, active human C1s (CompTech A104 C1s Enzyme) (human, UniProt P09871 16-688).
T1 construct: also called human active C1s; active C1s protein
T1 sequence (looked up): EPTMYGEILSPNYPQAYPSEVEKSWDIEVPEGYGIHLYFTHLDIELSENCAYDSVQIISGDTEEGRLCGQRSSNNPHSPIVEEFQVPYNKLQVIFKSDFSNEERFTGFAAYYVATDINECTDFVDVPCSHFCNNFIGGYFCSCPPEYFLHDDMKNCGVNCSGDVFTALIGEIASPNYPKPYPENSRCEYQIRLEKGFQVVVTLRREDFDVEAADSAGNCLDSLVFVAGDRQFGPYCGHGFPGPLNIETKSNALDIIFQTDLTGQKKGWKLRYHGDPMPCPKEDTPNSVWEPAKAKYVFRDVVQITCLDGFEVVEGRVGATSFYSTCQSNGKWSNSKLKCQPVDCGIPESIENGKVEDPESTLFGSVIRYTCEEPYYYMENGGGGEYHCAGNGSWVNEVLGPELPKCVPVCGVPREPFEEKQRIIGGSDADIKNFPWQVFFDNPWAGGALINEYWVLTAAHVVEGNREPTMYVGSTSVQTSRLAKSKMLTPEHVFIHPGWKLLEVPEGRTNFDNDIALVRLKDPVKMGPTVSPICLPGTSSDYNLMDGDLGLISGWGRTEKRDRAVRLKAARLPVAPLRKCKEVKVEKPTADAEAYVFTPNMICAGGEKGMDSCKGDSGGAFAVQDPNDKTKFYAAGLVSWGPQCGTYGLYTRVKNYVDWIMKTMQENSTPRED
As to the kind of experiment: BLI (Octet RED96e), antibody on AHC biosensor; HuC1s Form: Active; R^2 0.9990. The method, then:
Bio-Layer Interferometry technology was used for anti-C1s antibody affinity measurement and binding kinetics determinations with OCTET® RED96e system (Sartorius AG). Pre-hydrated Anti-Human IgG Fc Capture (AHC) biosensors were first equilibrated in 1×KB (Kinetic Buffer, 1×PBS pH 7.4+0.02% Tween-20+0.1% BSA) for 120 sec for the first baseline, followed by loading with […] anti-C1s antibody (2-7, FIG. 3A; 2-8, FIG. 3B; hz2-7(H1L2), FIG. 3C; hz2-8(H1L2 G80A/T82A, FIG. 3D) onto AHC biosensors for 240 sec. Then, the second baseline signal was established for 120 sec before association with various concentrations of active human C1s (CompTech A104) for 240-360 sec. At last, analyte was dissociated in 1×KB for 360 sec. Anti-C1s antibodies 2-7 and 2-8 were also analyzed against human C1s proenzyme (CompTech A103) (data not shown). Data analysis was carried out using OCTET® Data Analysis HT Software (Sartorius AG). KD, kₒₙ, koff and R² values were calculated for each antibody and target combination, as summarized in FIG. 3E showing high affinity binding with KD values in the low nanomolar to picomolar range.
Background: Biolayer interferometry detects binding as a change in optical thickness at a sensor tip.

The target in test [2] is T2, human C1s mutant M9 (K336G, D343Y & E351A) (human, UniProt P09871 16-688).
T2 construct: The entry is the mutant itself
T2 sequence: T1 sequence (looked up) with K336G, D343Y, E351A
As to the kind of experiment: ELISA, plate coated with human C1s mutant M9: K336G, D343Y, E351A, OD450nm. The procedure:
ELISA was carried out by first coating 96-well plates with 200 ng/well of full-length or truncated C1s proteins overnight. The next morning, plates were blocked with SuperBlock T20 blocking buffer (Thermo Scientific 37536) for 1 h with gentle shaking. Then, various concentrations of anti-C1s antibodies diluted in SuperBlock T20 blocking buffer were added to the plates and incubated for 1 h with gentle shaking. Mouse IgG (Sigma-Aldrich 15381) and human IgG1 (BioXCell BP0297) were used as negative controls. The plates were washed before incubating with HRP conjugated secondary antibodies diluted in SuperBlock T20 blocking buffer (goat anti-mouse IgG (H+L) cross-adsorbed secondary antibody HRP (Invitrogen G-21040) or goat anti-human IgG antibody, HRP conjugate (Millipore AP309P)) for 1 h with gentle shaking. At last, the plates were washed and color developed with ELISA liquid HRP substrate (Sigma-Aldrich), followed by stopping the reaction with addition of 1M H₂SO₄ in the same volume as the ELISA liquid substrate. Bound antibody was measured by absorbance at OD₄₅₀ₙₘ.
Binding of anti-C1s antibodies to mutants M1-M20 of human C1s was measured by ELISA as described in Example 4, and results are shown in FIGS. 6B-6U. […]

Substitutions are numbered along the chain they refer to. Numbers in names are those of the source.

B1: Anti-C1s antibody 2-8 (antibody, V domains shown)
VH: EVQLQQSGAELVRPGALVKLSCKASGFNIKEYYMHWVKQRPEQGLEWIGWIDPENGDTIYDPKFQGKASITADTSSNTAYLQLSSLTSEDTAVYYCARSRLFFAYWGQGTLVTVSA
VL: DIVMTQSHKFMSTSVGDRVSFTCKASQDVRTAVDWYQQKPGQSPKLLIYSASYRYTGVPDRFTGTGSGTDFTFTISSVQAEDLAVYFCQQQYTTPYTFGGGTKLEIKT
notes: the HC/LC entries may hold it too; also called clone 2-8
For B1, in test [1], the Kd (as a rule, a measure of binding affinity in units of concentration) is 490 pM; the koff (usually a measure of how fast the partners let go of each other) came out at 0.00012 s⁻¹; the kon (commonly the second-order rate constant of association) came out at 250000 M⁻¹ s⁻¹.

B2: Anti-C1s antibody hz2-8 (H1L2 G80A/T82A) (antibody, V domains shown)
VH: QVQLVQSGAEVKKPGASVKVSCKASGFNIKEYYMHWVRQAPEQGLEWMGWIDPENADAIYAQKFQGRVTITADTSTNTAYMELSSLRSEDTAVYYCARSRLFFAYWGQGTLVTVSS
VL: DIQMTQSPKSLSASVGDRVTITCRASQDVRTALDWYQQKPGQSPKLLIYSASYRYSGVPSRFSGSGSGTDFTLTISSLQPEDFATYYCQQQYTTPYTFGQGTKLEIKR
notes: Humanized variant with G80A and T82A in HC CDR2 (already in the entry), human IgG1 / kappa
In the case of B2, in test [2], the binding result was “no binding (tested: 1000 ng/ml (Log 3))”.
